Biological target: HB-EGF receptor for diptheria toxin/CRM197 (heparin-binding epidermal growth factor-like precursor) on OV90 ovarian cancer cells (UniProt Q99075)
Assay: cell-based or functional assay

Sequence of UniProt Q99075 (Q99075 63-148 limits assumed): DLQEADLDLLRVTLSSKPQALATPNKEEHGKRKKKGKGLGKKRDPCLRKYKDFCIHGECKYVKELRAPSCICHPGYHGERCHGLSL

Substance “CRM197-Alexa488 (from UniProt P00587 26-560)” has a labelling of OV90 tumor cells with CRM197-Alexa488 after 24 hours (flow cytometry, 10 µg/mL, without trypan blue) of 98.2%, a percentage of CRM197-Alexa488 uptake by OV90 tumor cells after 4 hours (flow cytometry, 10 µg/mL, without trypan blue) of 82% and a percentage of OV90 cells with intracellular CRM197-Alexa488 after 4 hours (flow cytometry, with trypan blue quenching) of 72.7%. For the same substance, the percentage of OV90 cells with intracellular CRM197-Alexa488 after 24 hours (flow cytometry, with trypan blue quenching) was 97.6%.
